For one molecule, percent of the protein in the ˜160kDa species results are on record in PMC10889000.

The target in this experiment is Insulin-like growth factor 2 mRNA binding protein 2, full-length, Q9Y6M1. Nature of the experiment: mass photometry. Particulars: remark: other sources report otherwise.

B1: Insulin-like growth factor 2 mRNA binding protein 2, full-length, Q9Y6M1 1-599 (natural protein)
chain: MMNKLYIGNLSPAVTADDLRQLFGDRKLPLAGQVLLKSGYAFVDYPDQNWAIRAIETLSGKVELHGKIMEVDYSVSKKLRSRKIQIRNIPPHLQWEVLDGLLAQYGTVENVEQVNTDTETAVVNVTYATREEAKIAMEKLSGHQFENYSFKISYIPDEEVSSPSPPQRAQRGDHSSREQGHAPGGTSQARQIDFPLRILVPTQFVGAIIGKEGLTIKNITKQTQSRVDIHRKENSGAAEKPVTIHATPEGTSEACRMILEIMQKEADETKLAEEIPLKILAHNGLVGRLIGKEGRNLKKIEHETGTKITISSLQDLSIYNPERTITVKGTVEACASAEIEIMKKLREAFENDMLAVNQQANLIPGLNLSALGIFSTGLSVLSPPAGPRGAPPAAPYHPFTTHSGYFSSLYPHHQFGPFPHHHSYPEQEIVNLFIPTQAVGAIIGKKGAHIKQLARFAGASIKIAPAEGPDVSERMVIITGPPEAQFKAQGRIFGKLKEENFFNPKEEVKLEAHIRVPSSTAGRVIGKGGKTVNELQNLTSAEVIVPRDQTPDENEEVIVRIIGHFFASQTAQRKIREIVQQVKQQEQKYPQGVASQRSK
In turn, B1 displayed a percent of the protein in the ˜160kDa species of 42%.
